This assay has as its target T1, GST-p23/Tmp21 (aa 1-219), from pEBG-p23/Tmp21 (full-length) (UniProt P49755 32-219).
T1 sequence (looked up): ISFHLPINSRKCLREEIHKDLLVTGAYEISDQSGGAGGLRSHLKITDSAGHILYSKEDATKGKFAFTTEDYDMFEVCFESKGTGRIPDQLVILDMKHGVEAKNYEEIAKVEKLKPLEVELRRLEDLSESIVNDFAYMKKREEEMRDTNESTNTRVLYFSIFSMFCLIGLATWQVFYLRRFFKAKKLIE
The assay can be described thus: pull-down.

B1: HA-β2-chimaerin (full-length) (natural protein, UniProt P52757-1 1-468, looked up)
chain: MAASSNSSLSGSSVSSDAEEYQPPIWKSYLYQLQQEAPRPKRIICPREVENRPKYYGREFHGIISREQADELLGGVEGAYILRESQRQPGCYTLALRFGNQTLNYRLFHDGKHFVGEKRFESIHDLVTDGLITLYIETKAAEYISKMTTNPIYEHIGYATLLREKVSRRLSRSKNEPRKTNVTHEEHTAVEKISSLVRRAALTHNDNHFNYEKTHNFKVHTFRGPHWCEYCANFMWGLIAQGVRCSDCGLNVHKQCSKHVPNDCQPDLKRIKKVYCCDLTTLVKAHNTQRPMVVDICIREIEARGLKSEGLYRVSGFTEHIEDVKMAFDRDGEKADISANVYPDINIITGALKLYFRDLPIPVITYDTYSKFIDAAKISNADERLEAVHEVLMLLPPAHYETLRYLMIHLKKVTMNEKDNFMNAENLGIVFGPTLMRPPEDSTLTTLHDMRYQKLIVQILIENEDVLF
B1: the “fold increase in association with PMA against vehicle (densitometry)” value is about 7 fold.

The values above are taken from PMC2854097 (Molecular Biology of the Cell, 2010).
